Ends that are not written are not given here.
B3: fluorescence-marked proline-rich peptide Cys-Ser-Gly-Pro-Pro-Pro-Pro-Pro-Pro-Pro-Pro-Leu-Pro (fluorescein-maleimide label) (peptide)
peptide: C(fluorescein‑maleimide)SGPPPPPPPPLP
notes: also called fluorescence-labeled peptide; fluorescence-marked peptide
B4: synthetic proline-rich peptide Cys-Ser-Gly-Pro-Pro-Pro-Pro-Pro-Pro-Pro-Pro-Leu-Pro (peptide)
peptide: CSGPPPPPPPPLP
notes: also called CSGP8LP; proline peptide

How the values were obtained:
[1] = target: B3; assay: incubation of labelled peptide with PyVP1-3C-WW[N-14], capsid assembly, gel filtration
[2] = target: B4; assay: affinity column with peptide, crude extract, wash with 2 M NaCl, elution with 2% SDS, SDS gel
[3] = target: T1, PyVP1-WW150 (mouse polyoma virus; Mus musculus …); assay: gel filtration (TSK gel G5000PWXL), co-elution of labelled peptide with capsids and pentamers, absorption at 490 nm
T1 construct: WW domain inserted between VP1 positions 148 and 149; Soluble pentamer after intein cleavage; also called PyVP1-WW150 variant; PyVP1-WW150 protein

[4] = target: T1, PyVP1-WW150; assay: SPR (Biacore X), peptide on CM5 chip, 10 mM HEPES, 1 mM EDTA, 150 mM NaCl, pH 7.2, 25 C, protein 5 to 50 nM
[5] = target: T1, PyVP1-WW150; assay: SPR (Biacore X), peptide on CM5 chip, Dulbecco's PBS
[6] = target: T2, PyVP1-WW150-D8C (mouse polyoma virus; Mus musculus …); assay: surface plasmon resonance; strengthened by 500 mM ammonium sulfate
T2 construct: Position 8 is counted on the WW domain itself

[7] = target: T1, PyVP1-WW150; assay: SPR (Biacore X), peptide on CM5 chip; summary of the three analyses of example 2

B1: PyVP1-3C-WW[N-14] (other)
chain: MSGWTEHKSPDGRTYYYNTETKQSTWEKPDDGHMSTKACPRPAPVPKLLIKGGMEVLDLVTGPDSVTEIEAFLNPRMGQPPTPESLTEGGQYYGWSRGINLATSDTEDSPGNNTLPTWSMAKLQLPMLNEDLTCDTLQMWEAVSVKTEVVGSGSLLDVHGFNKPTDTVNTKGISTPVEGSQYHVFAVGGEPLDLQGLVTDARTKYKEEGVVTIKTITKKDMVNKDQVLNPISKAKLDKDGMYPVEIWHPDPAKNENTRYFGNYTGGTCTPPVLQFTNTLTTVLLDENGVGPLSKGEGLYLSSVDIMGWRVTRNYDVHHWRGLPRYFKITLRKRWVKNPYPMASLISSLFNNMLPQVQGQPMEGENTQVEEVRVYDGTEPVPGDPDMTRYVDRFGKTKTVFPPG
notes: The range 15-384 follows from 'N-terminus shortened by 14 amino acids'
- binding result [1]: binds

B2: [PyVP1-3C-WW1]-intein-CBD (other)
chain: MSGWTEHKSPDGRTYYYNTETKQSTWEKPDDGHMAPKRKSGVSKSETKSTKACPRPAPVPKLLIKGGMEVLDLVTGPDSVTEIEAFLNPRMGQPPTPESLTEGGQYYGWSRGINLATSDTEDSPGNNTLPTWSMAKLQLPMLNEDLTCDTLQMWEAVSVKTEVVGSGSLLDVHGFNKPTDTVNTKGISTPVEGSQYHVFAVGGEPLDLQGLVTDARTKYKEEGVVTIKTITKKDMVNKDQVLNPISKAKLDKDGMYPVEIWHPDPAKNENTRYFGNYTGGTCTPPVLQFTNTLTTVLLDENGVGPLSKGEGLYLSSVDIMGWRVTRNYDVHHWRGLPRYFKITLRKRWVKNPYPMASLISSLFNNMLPQVQGQPMEGENTQVEEVRVYDGTEPVPGDPDMTRYVDRFGKTKTVFPPG
notes: also called (PyVP1-3C-WW1)-intein-CBD fusion protein
- binding result [2]: binds

Binder: B3
- binding result [3]: binds

Binder: B4
- Kd [4]: 5 nM
- koff [5]: 0.0018 s⁻¹
- kon [5]: 200000 M⁻¹ s⁻¹
- binding result [6]: binds
- Kd [7]: 20 nM

From patent publication US20060252130A1 (ACGT PREGENOMICS, published 2006)
